Numbered stars: 1 amine (or outer) side, 2 acyl side, 3 side chain; on linkers, the order of the positions; unused ones are H or OH. Square brackets hold non-standard residues; d marks the D form. Peptide text beside a SMILES is read from it. * marks the point of attachment. NOTA = O=C(O)CN1CCN(CC(=O)O)CCN(CC(=O)*)CC1; azaPhe = O=C(N(Cc1ccccc1)N[*:1])[*:2]; Nle = CCCC[C@H](N)C(=O)O; azaGly = NNC(=O)O
Columns and labels:
[1] = target: T1, Aβ40 (Homo sapiens, UniProt P05067); test: Thioflavin T (ThT) fluorescence assay of Aβ40 aggregation; type: biochemical; details: ThT, 10 μM soluble Aβ40
T1 construct: The extent of Aβ40 aggregation in the presence of increasing concentrations of azacyclopeptides
T1 sequence (P05067 672-711 limits assumed): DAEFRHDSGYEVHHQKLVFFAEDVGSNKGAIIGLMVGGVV
Experimental: Amyloid generation can be identified and quantified using the thioflavin T (ThT) fluorescence dye assay. […] Agents that bind and inhibit aggregation of Aβ diminish ThT fluorescence relative to untreated Aβ. The extent of Aβ40 aggregation in the presence of increasing concentrations of azacyclopeptides and azasulfurylcyclopeptide 55 was evaluated by the ThT assay. Fluorescence of Aβ40 that was aged for 48 h was used as control, defined as 0% anti-amyloidogenic activity, and compared with fluorescence in the presence of cyclic peptide mimics at increasing concentrations to measure anti-amyloidogenic activity.

[2] = system: CL2006 C. elegans strain; design: species or system Caenorhabditis (C.) elegans; details: in vivo
Text: Compound 3 was used in two in vivo transgenic Caenorhabditis (C.) elegans models expressing human Aβ42. The CL2006 C. elegans strain produces constitutively a body-wall muscle-specific Aβ42, the aggregation of which causes age-dependent paralysis, motility dysfunction and consequently short lifespan. The CL2355 strain expresses a temperature-inducible pan-neuronal Aβ42, accumulation of which leads to deficits in chemotaxis, associative learning and thrashing in liquid. The CL2006 mutant and control CL802 wild type worms had respective lifespans of 13.6 and 15.6 days (P<0.005, FIG. 3A).

[3] = system: Aβ species; test: PET imaging of ^64Cu-conjugates in 5×FAD mice; type: in vivo; details: for Aβ uptake (activity in the Aβ species) / Aβ uptake relative to ^64Cu-1-NOTA: 6-month old 5×FAD mice; for Aβ uptake (activity in the Aβ species): 20 h post-injection
Experimental: (§1) Images were taken 3 weeks apart on the same 5×FAD mouse for ^64Cu-conjugate 43 and ^11C-PIB (FIGS. 1B and C) using the 2-(4′-[^11C]methylaminophenyl)-6-hydroxybenzothiazole (^11C-PIB) compound. Use of ^11C-PIB is limited to 1 h due to short half-life (t1/2=20.4 min). […] In control 44 day-old WT mouse at 1-day post-injection of ^64Cu-conjugate 43, brain uptake is very low (FIG. 1D). Non-transgenic littermates (labeled as wild type (WT) controls in the text and FIG. 1D) were housed in the same manner as 5×FAD mice and used for comparison.
(§2) Amyloid plaque detection was evaluated in 4.5-7-month-old Tg [5×FAD] mice and age-matched wild-type controls using the ^11C-PIB compound. 5×FAD mice carry both mutant human APP(695) with the Swedish (K670N, M671L), Florida ([…]), and London (V717I) Familial Alzheimer's Disease (FAD) mutations and human PS1 harboring two FAD mutations, M146L and L286V. 5×FAD mice develop plaque formation beginning at 2 months and cognitive deficits at 4-6 months. […] Amyloid beta of ^64Cu-conjugate 40 in hippocampus at 1 h post injection (1.285±0.034% ID/g) was similar to that of ^11C-PIB (1.038±0.028% ID/g. FIG. 1) in the cortex.
(§3) Red and blue colours represent respectively highest and zero uptake. […] Different intensity scales were used for PET images. […] Images were taken 3 weeks apart on different mouse for ^64Cu-43 and ^11C-PIB. Co-registration of experimental image data with brain mask to mouse atlas space was achieved to identify volumes of interest. 1. Striatum; 2. Cortex; 3. Hippocampus; 4. Thalamus; 5. Cerebellum; 6. Basal forebrain septum; 7. Hypothalamus; 8. Amygdala; 9. Brain stem; 10. Central gray; 11. […] Olfactory bulb; 13. Midbrain; 14.

[4] = PET imaging and biodistribution, formulation tests in Balb/c mice; type: in vivo
Experimental: Different formulations were tested with the ^64Cu-1-NOTA conjugate to investigate the solubility of the PET tracer in vivo and select the best formulation for PET imaging studies. […] For further in vivo studies, 8% DMSO and 9% sucrose (for azaconjugates) were used.

[5] = PET imaging of ^64Cu-conjugates in 5×FAD mice; type: in vivo; details: mouse, in vivo, total radioactivity
Experimental: as §1, §2, §3

CCCC[C@@H]1NC(=O)[C@@H](CC(C)C)NC(=O)[C@H](CCCCN)NC(=O)NNC(=O)[C@H](Cc2c[nH]cn2)NC(=O)[C@@H](Cc2c[nH]c3ccccc23)NC1=O [Compound 3, c(D-Leu-L-Nle-D-Trp-L-His-Gly*-L-Lys)] (cyclo(K[dL][Nle][dW]H[azaGly]))
Inhibition of amyloidogenic activity(%) ([1]; Aβ:peptide 1:1): 83.7%
Inhibition of amyloidogenic activity(%) ([1]; Aβ:peptide 1:5): 81.3%
Inhibition of amyloidogenic activity(%) ([1]; Aβ:peptide 1:10): 83.7%
toxicity and longevity [2]: no toxicity and no influence on wild type CL802 worm longevity

[11CH3]Nc1ccc(-c2nc3ccc(O)cc3s2)cc1 [^11C-PIB, 2-(4′-[^11C]methylaminophenyl)-6-hydroxybenzothiazole, reference compound]
uptake in the cortex ([3]; 5×FAD mice, ^11C-PIB): 1.038±0.028 % ID/g

CCCC[C@@H]1NC(=O)[C@@H](CC(C)C)NC(=O)[C@H](CCCCNC(=O)CN2CCN(CC(=O)O)CCN(CC(=O)O)CC2)NC(=O)[C@@H](CO)NC(=O)[C@H](Cc2c[nH]cn2)NC(=O)[C@@H](Cc2c[nH]c3ccccc23)NC1=O [^64Cu-1-NOTA, metal not drawn] (cyclo([dL][Nle][dW]H[dS]K(NOTA)))
Aβ uptake (activity in the Aβ species) [3]: 0.430±0.010 % ID/g
organ uptake ([4]; Intra-lipid (20% IV fat-emulsion) formulations): lower uptake in the lungs and a higher uptake in the gastrointestinal tract and gallbladder
organ uptake ([4]; formulated in 8% DMSO): High lung and liver uptake

CCCC[C@@H]1NC(=O)N(Cc2ccccc2)NC(=O)[C@H](CCCCNC(=O)CN2CCN(CC(=O)O)CCN(CC(=O)O)CC2)NC(=O)[C@@H](CO)NC(=O)[C@H](Cc2c[nH]cn2)NC(=O)[C@@H](Cc2c[nH]c3ccccc23)NC1=O [^64Cu-conjugate 40, metal not drawn] (cyclo([azaPhe][Nle][dW]H[dS]K(NOTA)))
tissue uptake ([5]; 5×FAD mice at 4.5 months, read-out: accumulation of activity in the Aβ species): 0.165 ± 0.005 %ID/g
tissue uptake at 1 h ([5]; 5×FAD mice, 1 h post injection, read-out: uptake in hippocampus): 1.28 ± 0.034 %ID/g
tissue uptake at 20 h ([5]; 6-month old 5×FAD mice, 20 h post-injection, read-out: Aβ uptake (activity in the Aβ species)): 2.1 ± 0.059 %ID/g
time of highest activity value in Aβ species ([3]; 5×FAD mice, post injection): 1 days
Aβ uptake relative to ^64Cu-1-NOTA [3]: approximatively five times superior
Aβ uptake (activity in the Aβ species) [3]: 2.102±0.059 % ID/g

CCCC[C@@H]1NC(=O)[C@@H](CC(C)C)NC(=O)[C@H](CCCCNC(=O)CN2CCN(CC(=O)O)CCN(CC(=O)O)CC2)NC(=O)NNC(=O)[C@H](Cc2c[nH]cn2)NC(=O)[C@@H](Cc2c[nH]c3ccccc23)NC1=O [^64Cu-conjugate 43, metal not drawn] (cyclo([dL][Nle][dW]H[azaGly]K(NOTA)))
Aβ uptake relative to ^64Cu-1-NOTA [3]: approximatively five times superior
Aβ uptake (activity in the Aβ species) [3]: 2.030±0.056 % ID/g
uptake into the thalamus ([3]; Tg female 5×FAD AD mice, 9% sucrose in saline, 1-day post-injection): increased with age from 44 to 72 days
brain uptake ([3]; control 44 day-old WT mouse, 1-day post-injection): very low
